Key:
[1] = target: recombinant ribulose-5-phosphate-3-epimerase isoform 1 from Chlamydomonas reinhardtii (CrRPE1) (Chlamydomonas reinhardtii); assay: SEC
[2] = target: recombinant ribulose-5-phosphate-3-epimerase isoform 1 from Chlamydomonas reinhardtii (CrRPE1) (Chlamydomonas reinhardtii); assay: crystal structure
[3] = target: recombinant ribulose-5-phosphate-3-epimerase isoform 1 from Chlamydomonas reinhardtii (CrRPE1) (Chlamydomonas reinhardtii); assay: SEC-SAXS
[4] = target: native RPE1 extracted from Chlamydomonas reinhardtii cell cultures (Chlamydomonas reinhardtii (endogenous in strain D66)); assay: SEC

Substance | stoichiometry N [1] | stoichiometry N [2] | stoichiometry N (subunits per particle) [3] | stoichiometry N [4]
recombinant ribulose-5-phosphate-3-epimerase isoform 1 from Chlamydomonas reinhardtii (CrRPE1) (enzyme) | 5 subunits | 6 subunits | 6 | 
native RPE1 extracted from Chlamydomonas reinhardtii cell cultures (enzyme) |  |  |  | 6 subunits
